Source: US20200057047

Test system: HA-tagged AhR

Sequence of Myc-tagged PKCθ (Q04759 whole entry): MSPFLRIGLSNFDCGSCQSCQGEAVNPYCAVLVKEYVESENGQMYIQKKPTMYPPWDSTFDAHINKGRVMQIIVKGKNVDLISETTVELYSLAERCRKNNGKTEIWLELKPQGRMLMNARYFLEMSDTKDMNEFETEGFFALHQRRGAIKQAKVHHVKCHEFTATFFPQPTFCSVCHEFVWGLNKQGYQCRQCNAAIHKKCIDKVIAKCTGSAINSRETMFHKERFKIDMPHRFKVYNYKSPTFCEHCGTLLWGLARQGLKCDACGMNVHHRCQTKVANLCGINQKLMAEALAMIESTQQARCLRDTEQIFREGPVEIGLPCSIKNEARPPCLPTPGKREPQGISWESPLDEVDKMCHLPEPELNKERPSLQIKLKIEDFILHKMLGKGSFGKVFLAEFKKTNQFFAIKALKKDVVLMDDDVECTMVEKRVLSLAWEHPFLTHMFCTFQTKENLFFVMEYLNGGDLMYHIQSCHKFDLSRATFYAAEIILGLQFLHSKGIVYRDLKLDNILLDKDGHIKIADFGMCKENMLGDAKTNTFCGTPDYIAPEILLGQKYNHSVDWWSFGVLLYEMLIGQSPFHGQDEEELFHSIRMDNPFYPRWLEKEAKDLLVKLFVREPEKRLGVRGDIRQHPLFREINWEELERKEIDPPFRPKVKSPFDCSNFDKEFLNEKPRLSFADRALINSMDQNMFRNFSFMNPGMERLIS

Substance	in vitro kinase assay: AhR Ser-36 phosphorylation
Myc-tagged PKCθ	purified PKCθ indeed phosphorylated AhR at Ser-36
Myc-tagged PKCθ kinase-dead (K409W) mutant	purified kinase-dead (K409W) mutant of PKCθ did not
